These are literature values, as cited in article PMC10671529.

One series concerns the target HigB2 (Vibrio cholerae) (UniProt Q9KMA6).
Another series has as its target Im9 (Escherichia coli) (UniProt P13479).
Chain of UniProt P13479 (P13479 whole entry): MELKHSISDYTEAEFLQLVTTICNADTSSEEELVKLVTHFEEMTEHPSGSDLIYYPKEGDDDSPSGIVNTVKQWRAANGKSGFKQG

Chain of UniProt Q9KMA6 (Q9KMA6 whole entry): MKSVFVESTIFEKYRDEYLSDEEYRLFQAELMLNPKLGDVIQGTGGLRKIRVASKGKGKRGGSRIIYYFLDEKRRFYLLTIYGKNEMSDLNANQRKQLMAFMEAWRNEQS

Regarding HigA2 (from UniProt Q9KMA5), in the series with HigB2 (Vibrio cholerae), the dissociation constant (Kd) is 3.1 pM. For colicin E9 DNase (from UniProt P09883), the Kd with Im9 (Escherichia coli) was 0.023 pM.

What is called Kd is the constant that tells how readily two partners part at equilibrium.
